Assay results from article PMC2946932 (PLoS ONE, 2010).

Target: T1, extracellular domain of human BMP receptor type IA (BMPR-IAEC), wild type (human, UniProt P36894)
T1 construct: numbers count on: the mature protein; In the crystal only Pro34-Val118 were traced; also called BMPR-IA WT; BMPR-IA ectodomain; source: expressed as thioredoxin-fusion protein as described [16], purified
Experiment: SPR; Biacore 2000, room temperature; biotinylated BMP-2 and Fabs immobilised on a streptavidin-coated CM5 chip; wildtype or mutant BMPR-IAEC as analyte at 1000, 500, 250, 125, 62.5 nM; HBS500 (10 mM HEPES, 500 mM NaCl pH 7.4, 3.4 mM EDTA, 0.005% surfactant P20), 10 µl/min; 1:1 Langmuir model; apparent KD from equilibrium binding and/or kon and koff
Settings: both partners purified

T1 sequence (P36894 24-152): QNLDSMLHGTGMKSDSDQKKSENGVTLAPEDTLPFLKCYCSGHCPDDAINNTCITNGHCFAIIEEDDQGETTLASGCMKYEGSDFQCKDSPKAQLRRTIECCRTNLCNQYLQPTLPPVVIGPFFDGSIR

B1: Fab AbD1556 (Fab, V domains shown)
VH: QVQLVESGGGLVQPGGSLRLSCAASGFTFSNYTLNWVRQAPGKGLEWVSYTSSSGSLTGYADSVKGRFTISRDNSKNTLYLQMNSLRAEDTAVYYCARERWHVRGYFDHWGQGTLVTVSS
VL: DIELTQPPSVSVAPGQTARISCSGDSLGSKYVIWYQQKPGQAPVLVIYDDSNRPSGIPERFSGSNSGNTATLTISGTQAEDEADYYCSTFTMSGNGTVFGGGTKLTVL
notes: heavy chain of Fab AbD1556 (Gln1 to Phe224, then the Strep-Tag); light chain of Fab AbD1556 (Asp1 to Ala213); Human Fab of the HuCal library; Not biotinylated in the crystal; some residues of PDB 3NH7 are not modelled; source: obtained from AbD-Serotech (Martinsried), recombinant Fab selected from the HuCal phage library
Kd: 20 nM
koff: 0.0017 s⁻¹
kon: 88000 M⁻¹ s⁻¹
